US20240270846A1 (published 2024)

Target: T1, CD3 epsilon homodimer protein (UniProt P07766 23-126)
T1 construct: also called CD3 (CD3 epsilon)
Assay: SPR (Biacore T200), CD3e homodimer on CM4 chip, antibody as analyte; KD ratio vs unaltered GLS3000;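 note: CD3 epsilon homodimer amine-coupled to the sensor surface, antibodies injected as analyte at 25 °C with HBS-EP+ running buffer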

T1 sequence (P07766 23-126): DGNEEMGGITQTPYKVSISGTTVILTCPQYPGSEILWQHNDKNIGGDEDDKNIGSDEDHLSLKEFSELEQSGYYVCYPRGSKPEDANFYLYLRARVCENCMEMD

Row | Binder | KD ratio to GLS3000
1 | CE115HA000/GLS3000 G91A one-arm antibody (antibody, human IgG1, kappa, L234A L235A, N297A, name in Kabat numbering, one-arm IgG1) heavy: QVQLVESGGGVVQPGRSLRLSCAASGFTFSNAWMHWVRQAPGKGLEWVAQIKAKSNNYATYYAESVKGRFTISRDDSKNSLYLQMNSLKTEDTAVYYCRYVHYGAYYGVDAWGQGTTVTVSSASTKGPSVFPLAPSSKSTSGGTAALGCLVKDYFPEPVTVSWNSGALTSGVHTFPAVLQSSGLYSLSSVVTVPSSSLGTQTYICNVNHKPSNTKVDKKVEPKSCDKTHTCPPCPAPEAAGGPSVFLFPPKPKDTLMISRTPEVTCVVVDVSHEDPEVKFNWYVDGVEVHNAKTKPREEQYASTYRVVSVLTVLHQDWLNGKEYKCKVSNKALPAPIEKTISKAKGQPREPQVYTLPPSRCELTKNQVSLSCAVKGFYPSDIAVEWESNGQPENNYKTTPPVLDSDGSFFLVSKLTVDKSRWQQGNVFSCSVMHEALHNHYTQKSLSLSPDYKDDDDK EPKSSDKTHTCPPCPAPELLGGPSVFLFPPKPKDTLMISRTPEVTCVVVDVSHEDPEVKFNWYVDGVEVHNAKTKPREEQYNSTYRVVSVLTVLHQDWLNGKEYKCKVSNKALPAPIEKTISKAKGQPREPQVCTLPPSRDELTKNQVSLWCLVKGFYPSDIAVEWESNGQPENNYKTTPPVLDSDGSFFLYSKLTVDKSRWQQGNVFSCSVMHEALHNRYTQKSLSLSP light: DIVMTQSPLSLPVTPGEPASISCRSSQSLVHSNRNTYLHWYQQKPGQAPRLLIYKVSNRFSGVPDRFSGSGSGTDFTLKISRVEAEDVGVYYCGQATQVPYTFGQGTKLEIKRTVAAPSVFIFPPSDEQLKSGTASVVCLLNNFYPREAKVQWKVDNALQSGNSQESVTEQDSKDSTYSLSSTLTLSKADYEKHKVYACEVTHQGLSSPVTKSFNRGEC | 28.1 ratio
2 | CE115HA000/GLS3000 G89M one-arm antibody (antibody, human IgG1, kappa, L234A L235A, N297A, name in Kabat numbering, one-arm IgG1) heavy: QVQLVESGGGVVQPGRSLRLSCAASGFTFSNAWMHWVRQAPGKGLEWVAQIKAKSNNYATYYAESVKGRFTISRDDSKNSLYLQMNSLKTEDTAVYYCRYVHYGAYYGVDAWGQGTTVTVSSASTKGPSVFPLAPSSKSTSGGTAALGCLVKDYFPEPVTVSWNSGALTSGVHTFPAVLQSSGLYSLSSVVTVPSSSLGTQTYICNVNHKPSNTKVDKKVEPKSCDKTHTCPPCPAPEAAGGPSVFLFPPKPKDTLMISRTPEVTCVVVDVSHEDPEVKFNWYVDGVEVHNAKTKPREEQYASTYRVVSVLTVLHQDWLNGKEYKCKVSNKALPAPIEKTISKAKGQPREPQVYTLPPSRCELTKNQVSLSCAVKGFYPSDIAVEWESNGQPENNYKTTPPVLDSDGSFFLVSKLTVDKSRWQQGNVFSCSVMHEALHNHYTQKSLSLSPDYKDDDDK EPKSSDKTHTCPPCPAPELLGGPSVFLFPPKPKDTLMISRTPEVTCVVVDVSHEDPEVKFNWYVDGVEVHNAKTKPREEQYNSTYRVVSVLTVLHQDWLNGKEYKCKVSNKALPAPIEKTISKAKGQPREPQVCTLPPSRDELTKNQVSLWCLVKGFYPSDIAVEWESNGQPENNYKTTPPVLDSDGSFFLYSKLTVDKSRWQQGNVFSCSVMHEALHNRYTQKSLSLSP light: DIVMTQSPLSLPVTPGEPASISCRSSQSLVHSNRNTYLHWYQQKPGQAPRLLIYKVSNRFSGVPDRFSGSGSGTDFTLKISRVEAEDVGVYYCMQGTQVPYTFGQGTKLEIKRTVAAPSVFIFPPSDEQLKSGTASVVCLLNNFYPREAKVQWKVDNALQSGNSQESVTEQDSKDSTYSLSSTLTLSKADYEKHKVYACEVTHQGLSSPVTKSFNRGEC | 1.96 ratio

The next lines start with the values.

Row | KD ratio to GLS3000 | Binder
3 | 1.8 ratio | CE115HA000/GLS3000 G89K one-arm antibody (antibody, human IgG1, kappa, L234A L235A, N297A, name in Kabat numbering, one-arm IgG1) heavy: QVQLVESGGGVVQPGRSLRLSCAASGFTFSNAWMHWVRQAPGKGLEWVAQIKAKSNNYATYYAESVKGRFTISRDDSKNSLYLQMNSLKTEDTAVYYCRYVHYGAYYGVDAWGQGTTVTVSSASTKGPSVFPLAPSSKSTSGGTAALGCLVKDYFPEPVTVSWNSGALTSGVHTFPAVLQSSGLYSLSSVVTVPSSSLGTQTYICNVNHKPSNTKVDKKVEPKSCDKTHTCPPCPAPEAAGGPSVFLFPPKPKDTLMISRTPEVTCVVVDVSHEDPEVKFNWYVDGVEVHNAKTKPREEQYASTYRVVSVLTVLHQDWLNGKEYKCKVSNKALPAPIEKTISKAKGQPREPQVYTLPPSRCELTKNQVSLSCAVKGFYPSDIAVEWESNGQPENNYKTTPPVLDSDGSFFLVSKLTVDKSRWQQGNVFSCSVMHEALHNHYTQKSLSLSPDYKDDDDK EPKSSDKTHTCPPCPAPELLGGPSVFLFPPKPKDTLMISRTPEVTCVVVDVSHEDPEVKFNWYVDGVEVHNAKTKPREEQYNSTYRVVSVLTVLHQDWLNGKEYKCKVSNKALPAPIEKTISKAKGQPREPQVCTLPPSRDELTKNQVSLWCLVKGFYPSDIAVEWESNGQPENNYKTTPPVLDSDGSFFLYSKLTVDKSRWQQGNVFSCSVMHEALHNRYTQKSLSLSP light: DIVMTQSPLSLPVTPGEPASISCRSSQSLVHSNRNTYLHWYQQKPGQAPRLLIYKVSNRFSGVPDRFSGSGSGTDFTLKISRVEAEDVGVYYCKQGTQVPYTFGQGTKLEIKRTVAAPSVFIFPPSDEQLKSGTASVVCLLNNFYPREAKVQWKVDNALQSGNSQESVTEQDSKDSTYSLSSTLTLSKADYEKHKVYACEVTHQGLSSPVTKSFNRGEC
4 | 1.2 ratio | CE115HA000/GLS3000 G89N one-arm antibody (antibody, human IgG1, kappa, L234A L235A, N297A, name in Kabat numbering, one-arm IgG1) heavy: QVQLVESGGGVVQPGRSLRLSCAASGFTFSNAWMHWVRQAPGKGLEWVAQIKAKSNNYATYYAESVKGRFTISRDDSKNSLYLQMNSLKTEDTAVYYCRYVHYGAYYGVDAWGQGTTVTVSSASTKGPSVFPLAPSSKSTSGGTAALGCLVKDYFPEPVTVSWNSGALTSGVHTFPAVLQSSGLYSLSSVVTVPSSSLGTQTYICNVNHKPSNTKVDKKVEPKSCDKTHTCPPCPAPEAAGGPSVFLFPPKPKDTLMISRTPEVTCVVVDVSHEDPEVKFNWYVDGVEVHNAKTKPREEQYASTYRVVSVLTVLHQDWLNGKEYKCKVSNKALPAPIEKTISKAKGQPREPQVYTLPPSRCELTKNQVSLSCAVKGFYPSDIAVEWESNGQPENNYKTTPPVLDSDGSFFLVSKLTVDKSRWQQGNVFSCSVMHEALHNHYTQKSLSLSPDYKDDDDK EPKSSDKTHTCPPCPAPELLGGPSVFLFPPKPKDTLMISRTPEVTCVVVDVSHEDPEVKFNWYVDGVEVHNAKTKPREEQYNSTYRVVSVLTVLHQDWLNGKEYKCKVSNKALPAPIEKTISKAKGQPREPQVCTLPPSRDELTKNQVSLWCLVKGFYPSDIAVEWESNGQPENNYKTTPPVLDSDGSFFLYSKLTVDKSRWQQGNVFSCSVMHEALHNRYTQKSLSLSP light: DIVMTQSPLSLPVTPGEPASISCRSSQSLVHSNRNTYLHWYQQKPGQAPRLLIYKVSNRFSGVPDRFSGSGSGTDFTLKISRVEAEDVGVYYCNQGTQVPYTFGQGTKLEIKRTVAAPSVFIFPPSDEQLKSGTASVVCLLNNFYPREAKVQWKVDNALQSGNSQESVTEQDSKDSTYSLSSTLTLSKADYEKHKVYACEVTHQGLSSPVTKSFNRGEC
5 | 44.8 ratio | CE115HA000/GLS3000 G91D one-arm antibody (antibody, human IgG1, kappa, L234A L235A, N297A, name in Kabat numbering, one-arm IgG1) heavy: QVQLVESGGGVVQPGRSLRLSCAASGFTFSNAWMHWVRQAPGKGLEWVAQIKAKSNNYATYYAESVKGRFTISRDDSKNSLYLQMNSLKTEDTAVYYCRYVHYGAYYGVDAWGQGTTVTVSSASTKGPSVFPLAPSSKSTSGGTAALGCLVKDYFPEPVTVSWNSGALTSGVHTFPAVLQSSGLYSLSSVVTVPSSSLGTQTYICNVNHKPSNTKVDKKVEPKSCDKTHTCPPCPAPEAAGGPSVFLFPPKPKDTLMISRTPEVTCVVVDVSHEDPEVKFNWYVDGVEVHNAKTKPREEQYASTYRVVSVLTVLHQDWLNGKEYKCKVSNKALPAPIEKTISKAKGQPREPQVYTLPPSRCELTKNQVSLSCAVKGFYPSDIAVEWESNGQPENNYKTTPPVLDSDGSFFLVSKLTVDKSRWQQGNVFSCSVMHEALHNHYTQKSLSLSPDYKDDDDK EPKSSDKTHTCPPCPAPELLGGPSVFLFPPKPKDTLMISRTPEVTCVVVDVSHEDPEVKFNWYVDGVEVHNAKTKPREEQYNSTYRVVSVLTVLHQDWLNGKEYKCKVSNKALPAPIEKTISKAKGQPREPQVCTLPPSRDELTKNQVSLWCLVKGFYPSDIAVEWESNGQPENNYKTTPPVLDSDGSFFLYSKLTVDKSRWQQGNVFSCSVMHEALHNRYTQKSLSLSP light: DIVMTQSPLSLPVTPGEPASISCRSSQSLVHSNRNTYLHWYQQKPGQAPRLLIYKVSNRFSGVPDRFSGSGSGTDFTLKISRVEAEDVGVYYCGQDTQVPYTFGQGTKLEIKRTVAAPSVFIFPPSDEQLKSGTASVVCLLNNFYPREAKVQWKVDNALQSGNSQESVTEQDSKDSTYSLSSTLTLSKADYEKHKVYACEVTHQGLSSPVTKSFNRGEC
6 | 2.38 ratio | CE115HA000/GLS3000 G89L one-arm antibody (antibody, human IgG1, kappa, L234A L235A, N297A, name in Kabat numbering, one-arm IgG1) heavy: QVQLVESGGGVVQPGRSLRLSCAASGFTFSNAWMHWVRQAPGKGLEWVAQIKAKSNNYATYYAESVKGRFTISRDDSKNSLYLQMNSLKTEDTAVYYCRYVHYGAYYGVDAWGQGTTVTVSSASTKGPSVFPLAPSSKSTSGGTAALGCLVKDYFPEPVTVSWNSGALTSGVHTFPAVLQSSGLYSLSSVVTVPSSSLGTQTYICNVNHKPSNTKVDKKVEPKSCDKTHTCPPCPAPEAAGGPSVFLFPPKPKDTLMISRTPEVTCVVVDVSHEDPEVKFNWYVDGVEVHNAKTKPREEQYASTYRVVSVLTVLHQDWLNGKEYKCKVSNKALPAPIEKTISKAKGQPREPQVYTLPPSRCELTKNQVSLSCAVKGFYPSDIAVEWESNGQPENNYKTTPPVLDSDGSFFLVSKLTVDKSRWQQGNVFSCSVMHEALHNHYTQKSLSLSPDYKDDDDK EPKSSDKTHTCPPCPAPELLGGPSVFLFPPKPKDTLMISRTPEVTCVVVDVSHEDPEVKFNWYVDGVEVHNAKTKPREEQYNSTYRVVSVLTVLHQDWLNGKEYKCKVSNKALPAPIEKTISKAKGQPREPQVCTLPPSRDELTKNQVSLWCLVKGFYPSDIAVEWESNGQPENNYKTTPPVLDSDGSFFLYSKLTVDKSRWQQGNVFSCSVMHEALHNRYTQKSLSLSP light: DIVMTQSPLSLPVTPGEPASISCRSSQSLVHSNRNTYLHWYQQKPGQAPRLLIYKVSNRFSGVPDRFSGSGSGTDFTLKISRVEAEDVGVYYCLQGTQVPYTFGQGTKLEIKRTVAAPSVFIFPPSDEQLKSGTASVVCLLNNFYPREAKVQWKVDNALQSGNSQESVTEQDSKDSTYSLSSTLTLSKADYEKHKVYACEVTHQGLSSPVTKSFNRGEC
